Target: T1, mouse C-KIT (SB, Lot #LC05DE2304) (mouse, UniProt P05532 25-523)
T1 chain: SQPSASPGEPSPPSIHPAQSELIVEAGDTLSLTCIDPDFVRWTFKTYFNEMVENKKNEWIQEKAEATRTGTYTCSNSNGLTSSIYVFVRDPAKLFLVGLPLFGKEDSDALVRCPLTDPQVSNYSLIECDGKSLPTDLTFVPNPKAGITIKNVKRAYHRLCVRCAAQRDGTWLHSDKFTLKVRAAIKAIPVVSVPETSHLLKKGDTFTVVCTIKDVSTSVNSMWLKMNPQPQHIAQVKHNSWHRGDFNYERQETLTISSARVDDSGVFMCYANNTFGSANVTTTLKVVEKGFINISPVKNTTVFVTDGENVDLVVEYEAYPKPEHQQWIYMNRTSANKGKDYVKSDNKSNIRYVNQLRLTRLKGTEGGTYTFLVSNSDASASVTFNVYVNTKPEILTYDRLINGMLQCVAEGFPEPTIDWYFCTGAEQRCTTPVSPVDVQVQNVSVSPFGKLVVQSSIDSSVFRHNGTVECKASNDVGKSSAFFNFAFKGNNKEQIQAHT
Assay: SPR

Kd: 11.5 nM
B1: 2G4 antibody (antibody, V domains shown)
VH: QVQLVESGGGVVQPGRSLRLSCAASGFTFSRYGMHWVRQAPGKGLEWVAVIWYDGTNKDYTDSVRGRFTISRDNSKNTLYLQMNSLRAEDTAVYYCAREDWAEAFDMWGQGTTVTVSS
VL: not shown
